Data reported in US20220064334A1 (Janssen / Centocor, published 2022).
One block for each binder: values may come before it.

How the values were obtained:
[1] = molecular target: T1, KLK2 CAR KL2B413-LH expressed on SupT1 cells; experiment: flow cytometry on KL2B413-LH CAR SupT1 cells, directly PE-labelled antibody, PE median fluorescence
T1 construct: also called SupT1-KL2B413 LH; KL2B413-LH SupT1
Experimental: Multiple lots of PE-A002B39 were compared to assess differences in binding to KL2B413LH-SupT1 cells across batches. KL2B413-LH SupT1 cells (200,000 cells/well) were stained with LIVE/DEAD Fixable Near-IR viability dye and incubated with increasing concentrations of PE-A002B39 for 30 minutes on ice. After incubation, washing, and fixation, the samples were acquired on a 10 color FACSCanto II flow cytometer. Analysis was done using FlowJo analysis software and the PE median fluorescent intensity of live SupT1 cells is plotted in FIG. 7.

KL2B513 [2] = molecular target: T2, KL2B513; experiment: SPR, Biacore; antibody captured on anti-mouse Fc, scFv-Fc fusion as analyte
T2 construct: KL2B413-derived scFv-Fc fusion protein with the variable regions in VL-VH orientation; also called KL2B413-LH-scFv; KL2B413-LH scFv-Fc fusion protein; not shown: Fc part of the scFv-Fc fusion and its junction to the scFv
T2 sequence (scFv, as listed by the source limits assumed): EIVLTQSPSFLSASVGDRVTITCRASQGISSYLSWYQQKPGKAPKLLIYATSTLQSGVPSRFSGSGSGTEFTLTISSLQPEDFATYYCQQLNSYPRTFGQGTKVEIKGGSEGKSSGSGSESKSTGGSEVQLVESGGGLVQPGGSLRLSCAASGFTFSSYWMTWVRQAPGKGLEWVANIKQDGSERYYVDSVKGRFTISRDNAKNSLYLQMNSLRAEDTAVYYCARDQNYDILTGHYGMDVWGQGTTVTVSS
Experimental: Anti-Mouse Fc antibody directly immobilized on M5 sensor chip. Library Antibodies (Mouse IgG2a) diluted to 1 ug/ml to reach approximately 20-50 RU. Antigens (scFV Fc Fusions) are associated at 500 nM to 0.8 nM, 1:5 dilutions for 3 minutes. Dissociation for 30 mins.

KL2B513 [3] = molecular target: T2, KL2B513; experiment: SPR, ProteOn XPR36; antibody captured on anti-mouse Fc, scFv-Fc fusion as analyte
Experimental: (§1) ProteOn XPR36 system (BioRad) was used to perform binding assays. ProteOn GLC chips (BioRad, Cat#176-5011) were coated with Anti-Mouse Fc antibody. Library Antibodies (Mouse IgG2a) were diluted to 0.25 ug/ml to 1 ug/ml to reach approximately 100-200RL. Antigens (scFv-Fc Fusions) were associated at 1000 nM to 0.4 nM, 1:4 dilutions for 3 minutes, followed by dissociation for 30 mins. The results of the assay (Table 1 below) show similar binding affinity of A002B39 with both KLB513 and KLB610.

KL2B610 = molecular target: T3, KL2B610; experiment: as above
T3 construct: KL2B413-derived scFv-Fc fusion protein with the variable regions in VH-VL orientation; also called KL2B413-HL-scFv; KLB610; not shown: Fc part of the scFv-Fc fusion and its junction to the scFv
T3 sequence (scFv, as listed by the source limits assumed): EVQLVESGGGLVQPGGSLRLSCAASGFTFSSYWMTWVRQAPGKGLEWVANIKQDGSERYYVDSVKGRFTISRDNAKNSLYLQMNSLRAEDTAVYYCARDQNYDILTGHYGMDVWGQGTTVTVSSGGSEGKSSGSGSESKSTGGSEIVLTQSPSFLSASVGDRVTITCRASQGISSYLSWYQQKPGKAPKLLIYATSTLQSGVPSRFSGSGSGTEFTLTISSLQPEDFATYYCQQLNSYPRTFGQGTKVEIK
Experimental: as §1

[4] = molecular target: T1, KLK2 CAR KL2B413-LH expressed on SupT1 …; experiment: flow cytometry on KL2B413-LH SupT1 cells, PE goat anti-mouse IgG detection, PE median fluorescence
Experimental: SupT1 cells expressing KL2B413LH were compared to parental CAR-SupT1 cells. Cells (100,000 cells/well) were stained with LIVE/DEAD Fixable Near-IR viability dye (Life Technologies L10119) and then incubated with increasing concentrations of A002B39 for 30 minutes on ice. Following incubation, the samples were washed with BSA stain buffer (BD Biosciences #554657) and stained with PE-goat anti-mouse IgG polyclonal antibody (Biolegend #405307) to detect bound antibody on live CAR+SupT1 cells. After incubation, washing, and fixation (Cytofix, BD Biosciences), the samples were acquired on a 10 color FACSCanto II (BD Biosciences) flow cytometer. Analysis was done using FlowJo and the PE median fluorescent intensity of live SupT1 cells is plotted in FIG. 4. […] No binding was detected on CAR-SupT1 parental cells.

T1 sequence (chain, as listed by the source limits assumed): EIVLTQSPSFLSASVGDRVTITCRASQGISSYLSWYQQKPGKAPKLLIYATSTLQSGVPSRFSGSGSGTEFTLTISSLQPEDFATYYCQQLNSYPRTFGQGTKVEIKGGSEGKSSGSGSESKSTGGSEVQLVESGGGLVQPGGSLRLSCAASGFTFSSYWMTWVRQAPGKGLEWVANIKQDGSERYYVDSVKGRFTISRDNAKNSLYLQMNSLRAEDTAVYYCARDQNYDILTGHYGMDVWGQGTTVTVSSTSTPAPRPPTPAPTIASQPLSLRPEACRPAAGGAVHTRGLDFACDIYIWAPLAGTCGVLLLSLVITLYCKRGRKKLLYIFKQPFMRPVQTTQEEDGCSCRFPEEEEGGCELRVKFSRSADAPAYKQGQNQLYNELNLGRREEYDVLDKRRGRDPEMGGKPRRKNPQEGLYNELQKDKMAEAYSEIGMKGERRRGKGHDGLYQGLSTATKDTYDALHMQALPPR

- EC50 [1]: 1.6 µg/mL
B1: PE-A002B39 (antibody, mouse IgG2a, kappa, V domains shown)
VH: EVQLVQSGAEVKKPGSSVKVSCKASGGTFSSYAISWVRQAPGQGLEWMGGIIPIFGTANYAQKFQGRVTITADESTSTAYMELSSLRSEDTAVYYCARVQWGLDYWGQGTLVTVSS
VL: EIVLTQSPATLSLSPGERATLSCRASQSVDSALAWYQQKPGQAPRLLIYGASNRATGIPARFSGSGSGTDFTLTISSLEPEDFAVYYCQQRFNWPITFGQGTKVEIKR
modifications: R-phycoerythrin conjugate, 1:1 PE:antibody; attachment site and chain not stated
notes: also called A002B39 conjugated to R-PE

- Kd (KL2B513 [2]): 3.49 nM
- koff (KL2B513 [2]): 0.000202 s⁻¹
- kon (KL2B513 [2]): 57900 M⁻¹ s⁻¹
- Kd (KL2B513 [3]): 0.99 nM
- koff (KL2B513 [3]): 0.000333 s⁻¹
- kon (KL2B513 [3]): 339000 M⁻¹ s⁻¹
- Kd (KL2B610): 1.11 nM
- koff (KL2B610): 0.000315 s⁻¹
- kon (KL2B610): 285000 M⁻¹ s⁻¹
- EC50 [4]: 0.4 µg/mL
B2: A002B39 (antibody, mouse IgG2a, kappa, V domains shown)
VH: B1 VH
VL: B1 VL
notes: expressed in HEK293 Expi or CHO; also called A002M39
